{"source": "patent US20170087188A1", "about": "“WNT INDUCED MOTILITY AND ENHANCED ENGRAFTMENT OF CELLS” (OTTAWA HOSPITAL RESEARCH INSTITUTE, priority 2014, published 2017)", "molecules": {"B1": {"name": "Wnt7a: non-canonical Wnt polypeptide (R&D Systems) used to treat or load myogenic cells (protein, UniProt O00755 32-349, looked up)", "Protein Wnt-7a": "LGASIICNKIPGLAPRQRAICQSRPDAIIVIGEGSQMGLDECQFQFRNGRWNCSALGERTVFGKELKVGSREAAFTYAIIAAGVAHAITAACTQGNLSDCGCDKEKQGQYHRDEGWKWGGCSADIRYGIGFAKVFVDAREIKQNARTLMNLHNNEAGRKILEENMKLECKCHGVSGSCTTKTCWTTLPQFRELGYVLKDKYNEAVHVEPVRASRNKRPTFLKIKKPLSYRKPMDTDLVYIEKSPNYCEEDPVTGSVGTQGRACNKTAPQASGCDLMCCGRGYNTHQYARVWQCNCKFHWCCYVKCNTCSERTEMYTCK"}}, "key": {"[1]": {"tested_on": "human primary myoblasts", "test": "Scratch migration assay, human primary myoblasts", "format": "cell-based", "description": "The translational relevance of Wnt7a treatment was examined in human primary myoblasts.\n(§1) Following plasmid transfection or application of Wnts (R&D Systems), the cells were treated with Mitomycin-C for 2 h (50 μg/mL). Subsequently, the monolayer of cells was scraped in a straight line. The plates were then extensively washed with culture medium and incubated for 24 h before analysis. Analysis was performed using DAPI staining after matching the reference points and enumeration of DAPI-stained nuclei in the scar was performed. Unless otherwise indicated, Wnt7a and Wnt3a were used at a concentration of 100 ng/mL in scratch assays. Monodansylcadaverine (MDC, 30432, Sigma) was used in scratch assays at a concentration of 50 μm."}, "[2]": {"tested_on": "C2C12 cells", "test": "Morphological quantification of triangular polarized C2C12 cells", "format": "cell-based", "description": "Cell migration is typically accompanied by cytoskeletal polarization leading to a distinctive triangular cell shape.\nFzd7-YFP was expressed in myogenic cells and induced polarization by 130% (FIG. 1A and FIG. 9A). […] The majority of Fzd7-YFP localized to small intracellular vesicles associated with the tubulin cytoskeleton in C2C12 cells (FIG. 1B). By contrast, no such localization could be observed for YFP alone (FIG. 9B).\nFor myoblast culture, satellite cells were FACS purified as described (Bentzinger et al., 2013c) and plated on Collagen-coated dishes (BD Biosciences) in Ham's F10 medium supplemented with 20% FBS and 5 ng/mL of basic FGF (Millipore). C2C12 cells and human myoblasts were cultured as previously described (von Maltzahn et al., 2012). For in vitro morphology quantifications, Wnt7a was used at a concentration of 50 ng/mL."}, "[3]": {"tested_on": "Rac1", "test": "Rac1 activation assay in mouse primary myoblasts", "format": "cell-based", "settings": "Wnt7a overexpression (Wnt7a-HA retrovirus) vs empty virus", "description": "Wnt7a signaling in satellite cells involves Rac1. Polarized peripheral Fzd7-tdTomato colocalized with GFP-Rac1 in C2C12 cells (FIG. 3A). It was hypothesized that the small GTPase Rac1 might also be involved in Wnt7a mediated cell polarization and migration. […] Various forms of Wnt signaling require Disheveled (Dvl) proteins.\nFor co-immunoprecipitation (CoIP) experiments and the Rac1 activation assay, satellite cell-derived primary myoblasts were infected with retroviruses generated from empty pHAN or from pHAN-Wnt7a-HA (Kuroda et al., 2013). Dvl2 knockdown was performed with an ON-TARGETplus siRNA SMARTpool (L-040921-01, Thermo Fisher Scientific) (Wu et al., 2008) using Lipofectamine RNAiMAX (Life Technologies) according to the manufacturer's instructions. As a control for the knockdown, a non-silencing siRNA SMARTpool was used (D-001810-10, Thermo Fisher Scientific). Cell extracts were obtained through RIPA buffer lysis in the presence of a protease inhibitor cocktail (Nacalai). For CoIP of Rac1 with Dvl2, rabbit anti-Dvl2 antibody was coupled to Protein A Dynabeads (Life Technologies). Denaturing SDS-PAGE was performed using standard techniques. Rac1 activation assay was performed according to the manufacturer's instructions (Pierce)."}, "[4]": {"tested_on": "mdx extensor digitorum longus (EDL) muscles", "test": "Muscle force measurement of mdx EDL muscles after satellite cell transplantation", "format": "in vivo, mouse", "settings": "3,000 satellite cells treated ex vivo, compared to Veh.", "description": "Under normal conditions, a portion of transplanted satellite cells will differentiate and fuse to muscle myofibers. In mdx mice, this process can be tracked by staining for restored dystrophin expression in muscle fibers. […] Similar to the stimulatory effect of Wnt7a on myogenic cell migration in vitro, clusters of dystrophin-expressing myofibers in muscles that were transplanted with Wnt7a-treated cells were highly dispersed and on average located maximally 3.7 mm apart. By contrast, transplantation of untreated cells gave rise to clusters of dystrophin-expressing myofibers that were on maximally 2.2 mm apart on average (FIGS. 6F and 6G).\nExtensor digitorum longus (EDL) muscles were isolated three weeks following transplantation and attached to an electrode and a force sensor (Aurora Scientific), and incubated at 25° C. in buffered physiological saline (Krebs-Ringer) supplemented with glucose and oxygen. Twitch force was determined following a single electrical stimulus, while maximal force was generated by electrical stimulation at 100 Hz for 500 ms. Thereafter, muscle length and weight were measured and specific muscle force was calculated ((maximal force×optimal fiber length×muscle density)/muscle mass)."}, "[5]": {"tested_on": "mouse primary myoblasts", "test": "Scratch migration assay, mouse primary myoblasts", "format": "cell-based", "description": "Cellular polarization is indicative of increased motility (de Forges et al., 2012). Scratch assays were used to test whether Wnt7a and Fzd7 polarization affect cell motility. To exclude effects on the localization of cells arising from altered rates of proliferation, cells were treated with Mitomycin-C.\nFzd7 deficient cells migrated 59% less compared to heterozygous myoblasts and expression of Fzd7-Flag in Fzd7 knockout myoblasts restored migration to normal levels (FIG. 2D). […] To investigate whether the stimulation of myoblast migration is dose dependent, different concentrations of Wnt7a and Wnt3a were tested for their effect on migration.\nas §1"}, "[6]": {"tested_on": "satellite cells", "test": "Live imaging of satellite cells on single cultured myofibers", "format": "cell-based, mouse", "settings": "Wnt7a 1.5 μg/mL; compared to Veh.", "description": "The effect of Wnt7a on satellite cell migration was measured using a time lapse imaging technique previously employed to monitor satellite cells on single muscle myofibers (Siegel et al., 2009). Wnt7a increased the mean velocity of satellite cells by 31% when compared to Veh. (FIG. 2F). […] (FIG. 2G).\nSingle cell imaging of cells transfected with Fzd7-YFP or YFP was performed on an LSM710 confocal microscope under 5% CO2 at 37° C. in phenol-red free DMEM (Life technologies) containing 10% FBS. Imaging of satellite cells on fibers was performed as described (Siegel et al., 2009). For live imaging of satellite cells on myofibers, Wnt7a was used at a concentration of 1.5 μg/mL. Satellite cell time-lapse microscopy was performed using a Leica DMI 5100 inverted microscope and MetaMorph 7.6.1 Software (Molecular Devices) with time points being acquired every 7 minutes in a stagetop incubator (LiveCell Imaging). ImageJ analyzed the time-lapse data to calculate the velocity, defined as distance (um)/time (hr), between time points and the average velocity of each cell was calculated. The maximum velocity is defined as the highest velocity obtained by a single cell during the tracking period."}, "[7]": {"tested_on": "primary myoblasts", "test": "Proliferation of primary myoblasts over five days", "format": "cell-based", "settings": "3 h exposure; various concentrations; over 5 days", "description": "The proliferation of primary myoblasts following a 3 h exposure to various concentrations of Wnt7a was analyzed to control for the effect being due to changes in the cell cycle status of the transplanted cells."}}, "note": "Entries after “also recorded” stand apart in the source; their conditions may differ."}
{"molecule": "B1", "values": [{"measurement": "human myoblast migration", "setting": "[1]", "result": "significantly increases cell migration; also recorded: significantly increased human myoblast migration"}, {"measurement": "increase in the abundance of triangular polarized cells", "setting": "[2]; C2C12 myoblasts, vs vehicle treated cells expressing YFP, Wnt7a 50 ng/mL", "result": 111, "unit": "%"}, {"measurement": "increase in cell polarization", "setting": "[2]; Fzd7-YFP expressing C2C12 cells treated with Wnt7a", "result": 167, "unit": "%"}, {"measurement": "activation of Rac1", "setting": "[3]", "result": "significantly increased the activation of Rac1"}, {"measurement": "increase in maximal specific force generation", "setting": "[4]", "result": 18, "unit": "%"}, {"measurement": "increase in twitch tension", "setting": "[4]", "result": 30, "unit": "%"}, {"measurement": "dose dependency of myoblast migration", "setting": "[5]; different concentrations tested, mouse primary myoblasts", "result": "relatively linear increases in cell migration"}, {"measurement": "response of cell migration to Wnt7a in Fzd7 knockout myoblasts", "setting": "[5]; primary myoblasts from Fzd7−/− mice", "result": "do not respond; also recorded: no reaction"}, {"measurement": "increase in cell migration", "setting": "[5]; satellite cell derived mouse primary myoblasts, Wnt 100 ng/mL, vs Veh. or empty vector", "result": 136, "unit": "%"}, {"measurement": "higher directional persistence", "setting": "[6]", "result": 36, "unit": "%"}, {"measurement": "increase in mean velocity of satellite cells", "setting": "[6]", "result": 31, "unit": "%"}, {"measurement": "mean maximal velocity", "setting": "[6]", "result": "not significantly different; also recorded: not substantially different"}, {"measurement": "rate of proliferation of primary myoblasts", "setting": "[7]", "result": "No change in the rate of proliferation"}]}
